From patent publication US20140178332A1 (published 2014)

Experiments:
[1] = target: T1, recombinant purified human IL-12 p70 (human, UniProt P29459 23-219); assay: competition ELISA on coated human IL-12, competitor of 0.8 µg/ml biotinylated 8E1, Expt. 3
T1 construct: Disulfide-linked heterodimer of p35 and p40; also called hIL-12; Hu IL-12
T1 sequence 1: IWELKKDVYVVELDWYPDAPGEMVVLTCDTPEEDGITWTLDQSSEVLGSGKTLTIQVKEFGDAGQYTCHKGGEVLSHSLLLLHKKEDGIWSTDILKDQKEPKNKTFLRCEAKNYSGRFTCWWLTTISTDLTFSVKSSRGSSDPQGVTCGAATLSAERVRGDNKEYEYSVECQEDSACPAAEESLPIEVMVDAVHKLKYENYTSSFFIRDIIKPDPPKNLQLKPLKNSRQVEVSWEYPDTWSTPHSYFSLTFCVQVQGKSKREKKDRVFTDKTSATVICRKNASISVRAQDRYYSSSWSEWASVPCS
T1 sequence 2: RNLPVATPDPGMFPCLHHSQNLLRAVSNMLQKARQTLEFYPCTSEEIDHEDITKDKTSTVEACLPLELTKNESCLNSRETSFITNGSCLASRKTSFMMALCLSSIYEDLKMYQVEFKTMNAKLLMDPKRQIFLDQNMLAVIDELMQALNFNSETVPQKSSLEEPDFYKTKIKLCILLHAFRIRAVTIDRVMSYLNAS
Protocol: (§1) MaxiSorp ELISA plates (Nalge Nunc International) were coated overnight at 4° C. with 100 μl/well of 1.0 μg/ml human IL-12 in 0.2 M sodium carbonate-bicarbonate buffer, pH 9.4, washed with Wash Buffer (PBS containing 0.1% Tween 20), and blocked for 1 hr at room temperature with 300 μl/well of SuperBlock Blocking Buffer in TBS (Pierce Chemical Company). […] As isotype controls, 100 μl/well of 100 μg/ml mouse IgG 1/κ (MuFd79) or humanized IgG1/κ (HuFd79) monoclonal antibodies in ELISA buffer was used. As a no-competitor control, 100 μl/well of ELISA Buffer was used. After incubating the plates for 1 hr at room temperature, and washing with Wash Buffer, bound antibodies were detected using 100 μl/well of 1 μg/ml HRP-conjugated streptavidin (Pierce Chemical Company) in ELISA buffer. After incubating for 1 hr at room temperature, and washing with Wash Buffer, color development was performed by adding 100 μl/well of ABTS Peroxidase Substrate/Peroxidase Solution B (KPL, Inc.). After incubating for 5 min at room temperature, color development was stopped by adding 50 μl/well of 2% oxalic acid. Absorbance was read at 415 nm.
(§2) The affinity of 8E1.4, 8E1.5 and 8E1.6 to human IL-12 was analyzed by competition ELISA as described above.

[2] = target: T1, recombinant purified human IL-12 p70; assay: SPR (Biacore), mAb captured on anti-mouse IgG Fc, IL-12 p70 as analyte
Protocol: The BIACORE assay (Biacore, Inc, Piscataway, N.J.) determines the affinity of antibodies with kinetic measurements of on-, off-rate constants. Binding of antibodies to recombinant purified human IL-12 p70 or recombinant purified human IL-12 p40 were determined by surface plasmon resonance-based measurements with a Biacore® 3000 instrument (Biacore® AB, Uppsala, Sweden) using running HBS-EP (10 mM HEPES [pH 7.4], 150 mM NaCl, 3 mM EDTA, and 0.005% surfactant P20) at 25° C. All chemicals were obtained from Biacore® AB (Uppsala, Sweden) or otherwise from a different source as described in the text. Approximately 5000 RU of goat anti-mouse IgG, (Fcγ), fragment specific polyclonal antibody (Pierce Biotechnology Inc, Rockford, Ill.) diluted in 10 mM sodium acetate (pH 4.5) was directly immobilized across a CM5 research grade biosensor chip using a standard amine coupling kit according to manufacturer's instructions and procedures at 25 μg/ml. Unreacted moieties on the biosensor surface were blocked with ethanolamine. Modified carboxymethyl dextran surface in flowcell 2 and 4 was used as a reaction surface. Unmodified carboxymethyl dextran without goat anti-mouse IgG in flow cell 1 and 3 was used as the reference surface. For kinetic analysis, rate equations derived from the 1:1 Langmuir binding model were fitted simultaneously to association and dissociation phases of all eight injections (using global fit analysis) with the use of Biaevaluation 4.0.1 software. Purified antibodies were diluted in HEPES-buffered saline for capture across goat anti-mouse IgG specific reaction surfaces. Mouse antibodies to be captured as a ligand (25 μg/ml) were injected over reaction matrices at a flow rate of 5 μl/min. The association and dissociation rate constants, kₒₙ (unit M⁻¹ s⁻¹) and koff (unit s⁻¹) were determined under a continuous flow rate of 25 μl/min. Rate constants were derived by making kinetic binding measurements at ten different antigen concentrations ranging from 10-200 nM. The equilibrium dissociation constant (unit M) of the reaction between mouse antibodies and recombinant purified human IL-12 p70 or recombinant purified human IL-12 p40 was then calculated from the kinetic rate constants by the following formula: KD=koff/kₒₙ. Binding is recorded as a function of time and kinetic rate constants are calculated.

[3] = target: T1, recombinant purified human IL-12 p70; assay: competition ELISA on coated human IL-12, competitor of 0.8 µg/ml biotinylated 8E1, average
Protocol: as §1, §2

[4] = target: T1, recombinant purified human IL-12 p70; assay: cell-based or functional assay
[5] = target: T2, recombinant purified cyno IL-12 p70 (cynomolgus monkey); assay: cell-based or functional assay
T2 chain 1: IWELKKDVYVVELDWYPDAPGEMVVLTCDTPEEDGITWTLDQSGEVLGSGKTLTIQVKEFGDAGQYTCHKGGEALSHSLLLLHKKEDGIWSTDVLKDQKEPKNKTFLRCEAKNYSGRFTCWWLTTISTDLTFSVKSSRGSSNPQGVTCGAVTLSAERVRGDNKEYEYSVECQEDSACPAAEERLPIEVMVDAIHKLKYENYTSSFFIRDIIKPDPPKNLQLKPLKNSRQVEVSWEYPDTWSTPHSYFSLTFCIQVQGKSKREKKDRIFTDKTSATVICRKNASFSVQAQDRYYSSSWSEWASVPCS
T2 chain 2: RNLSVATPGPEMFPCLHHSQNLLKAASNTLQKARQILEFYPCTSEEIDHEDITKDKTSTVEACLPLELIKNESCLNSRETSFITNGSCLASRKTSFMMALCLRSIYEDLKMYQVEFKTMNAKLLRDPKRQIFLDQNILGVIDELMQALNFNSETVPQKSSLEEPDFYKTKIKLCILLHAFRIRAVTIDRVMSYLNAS

IC50 [1]: 2.28 µg/mL
Kd [2]: 0.074 nM
koff [2]: 5.1e-05 s⁻¹
kon [2]: 690000 M⁻¹ s⁻¹
IC50 [3]: 2.56 µg/mL
Average IC50 (nM) Human IL-12, PHA blast IFN-γ assay [4]: 0.19 nM
Average IC50 (nM) Cyno IL-12, PHA blast IFN-γ assay [5]: 0.18 nM
B1: murine anti-human IL-12p40 monoclonal antibody 8E1 (antibody, V domains shown)
VH: EVKLVESGGGLVQPGGSRKLSCAASGFTFSDYGMVWVRQAPGKGLEWVASISSGSSNIYYADTVKGRFTISRDDPNNTLFLQMRSLRSEDTAMYYCARNPYWGQGTTLTVSS
VL: DIVMTQSQKFMSTSVGDRVSVTCKASQNVGTNVAWYQQKPGQSPKGLIYSASHRYSGVPDRFAGSGSGTDFTLTISNVQSEDLAEYFCQQYNSYPLTFGGGTKLELKR
notes: Murine mAb; also called biotinylated 8E1
